This assay addresses murine PDL-1 (murine) (UniProt Q9EP73). Briefly: bead based FACS of purified EVADER vectors with fluorescent-labelled antibody.
Chain of UniProt Q9EP73 (Q9EP73 19-290): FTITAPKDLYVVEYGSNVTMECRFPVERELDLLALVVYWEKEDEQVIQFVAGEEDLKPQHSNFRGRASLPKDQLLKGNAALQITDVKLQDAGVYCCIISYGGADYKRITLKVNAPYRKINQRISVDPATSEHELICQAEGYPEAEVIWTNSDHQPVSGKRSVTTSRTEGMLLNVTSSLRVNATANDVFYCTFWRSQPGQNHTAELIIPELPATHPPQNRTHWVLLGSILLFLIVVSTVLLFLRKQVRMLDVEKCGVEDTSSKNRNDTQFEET

For “anti-murine PDL-1 (anti-PDL-1-PE-A, Abcam catalog number ab213480) (antibody)”, the percent of EVADER vector particles positive (level on the surface) was found to be 75.3%.

The values above are taken from US20200338216A1.
